Earlier results as cited in paper PMC6803667, “Binding site plasticity in viral PPxY Late domain recognition by the third WW domain of human NEDD4” (Scientific Reports, 2019).
pKd: −log10 of the molar value.

Target: ARRDC3 peptide (Homo sapiens)

Sequence of NEDD4 WW3 (P46934 837-876): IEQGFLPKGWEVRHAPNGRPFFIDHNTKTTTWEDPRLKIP

pKd: 5.52
Substance: NEDD4 WW3 (from UniProt P46934)
